Source: US20240124607A1 (Merck Sharp & Dohme, published 2024)
Residue numbers refer to the chain shown, from its start.

What was measured:
[1] = target: T1, soluble mouse Fc-human NKG2D dimer (human, UniProt P26718 78-216, limits assumed); assay: SPR, mAb captured by anti-hFc, 37C
T1 construct: also called NKG2D-mFc; human NKG2D fused to a mouse Fc
T1 sequence (looked up): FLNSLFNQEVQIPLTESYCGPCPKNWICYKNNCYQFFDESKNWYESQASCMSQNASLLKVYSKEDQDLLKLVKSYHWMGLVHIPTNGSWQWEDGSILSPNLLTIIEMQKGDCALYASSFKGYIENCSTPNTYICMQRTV
Procedure: Kinetics and affinity of various NKG2D-binding domains were assessed by surface plasmon resonance using Biacore 8K instrument (GE Healthcare). Anti-human Fe antibody was immobilized on a CM5 chip using standard amine coupling chemistry. Human monoclonal antibodies containing various NKG2D-binding domains were captured on the anti-human Fc chip at a density of approximately 100 RU. […] Surfaces were regenerated between cycles by quick injection of 10 mM glycine, pH 1.8. To obtain kinetic rate constants, double-referenced data were fit to a 1:1 interaction model using Biacore 8K Evaluation software (GE Healthcare). The equilibrium binding constant KD was determined by the ratio of dissociation constant kd and association constant kₐ (kd/kₐ).

human CEACAM5 on cells [2] = target: T2, human CEACAM5 on cells (human, UniProt P06731 35-685); assay: flow cytometry, MKN-45 cells
T2 construct: tumour cell lines with endogenous CEACAM5, or B16F10 engineered to express hCEACAM5; also called CEACAM5 on MKN-45, HPAF-II, SK-CO-1, LoVo, BxPC-3, Kato-III, LS-174T, ZR-75-30; hCEACAM5-B16F10
T2 sequence: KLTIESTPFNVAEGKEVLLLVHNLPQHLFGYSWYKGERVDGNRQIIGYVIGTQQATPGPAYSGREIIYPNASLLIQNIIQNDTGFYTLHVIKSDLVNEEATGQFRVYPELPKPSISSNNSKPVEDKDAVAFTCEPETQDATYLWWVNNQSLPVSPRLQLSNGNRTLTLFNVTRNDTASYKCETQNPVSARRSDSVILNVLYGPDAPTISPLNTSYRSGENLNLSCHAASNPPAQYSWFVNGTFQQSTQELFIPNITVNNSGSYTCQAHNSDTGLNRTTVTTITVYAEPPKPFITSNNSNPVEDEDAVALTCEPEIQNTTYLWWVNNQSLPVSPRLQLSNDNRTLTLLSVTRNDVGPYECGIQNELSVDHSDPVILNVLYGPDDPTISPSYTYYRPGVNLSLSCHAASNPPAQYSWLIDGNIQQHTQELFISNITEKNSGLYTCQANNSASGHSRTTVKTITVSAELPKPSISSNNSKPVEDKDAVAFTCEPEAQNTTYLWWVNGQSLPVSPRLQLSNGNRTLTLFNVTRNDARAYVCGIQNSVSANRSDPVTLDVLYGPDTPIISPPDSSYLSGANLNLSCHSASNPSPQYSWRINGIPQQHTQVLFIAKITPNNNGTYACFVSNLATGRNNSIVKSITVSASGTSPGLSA

human CEACAM5 on cells [3] = target: T2, human CEACAM5 on cells; assay: flow cytometry, SK-CO-1 cells
human CEACAM5 on cells [4] = target: T2, human CEACAM5 on cells; assay: flow cytometry, Kato-III cells
human CEACAM5 on cells [5] = target: T2, human CEACAM5 on cells; assay: flow cytometry, LoVo cells
human CEACAM5 on cells [6] = target: T2, human CEACAM5 on cells; assay: flow cytometry, BxPC-3 cells
mouse NKG2D-Fc = target: T3, mouse NKG2D-Fc (mouse, UniProt O54709 90-232); assay: ELISA on plate-adsorbed recombinant mouse NKG2D-Fc, anti-human kappa-HRP, OD 450 nm
T3 construct: extracellular domain; also called Mouse NKG2D-Fc-biotin
T3 sequence (looked up): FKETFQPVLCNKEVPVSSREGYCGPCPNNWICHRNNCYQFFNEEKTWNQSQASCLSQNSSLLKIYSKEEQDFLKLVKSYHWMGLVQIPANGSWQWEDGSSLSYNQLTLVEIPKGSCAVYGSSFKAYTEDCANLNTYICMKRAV
Text: (§1) The nucleic acid sequences of human, mouse or cynomolgus NKG2D ectodomains were fused with nucleic acid sequences encoding human IgG1 Fc domains and introduced into mammalian cells to be expressed. After purification, NKG2D-Fc fusion proteins were adsorbed to wells of microplates. After blocking the wells with bovine serum albumin to prevent non-specific binding, NKG2D-binding domains were titrated and added to the wells pre-adsorbed with NKG2D-Fc fusion proteins. Primary antibody binding was detected using a secondary antibody which was conjugated to horseradish peroxidase and specifically recognizes a human kappa light chain to avoid Fc cross-reactivity. 3,3′,5,5′-Tetramethylbenzidine (TMB), a substrate for horseradish peroxidase, was added to the wells to visualize the binding signal, whose absorbance was measured at 450 nm and corrected at […]. An NKG2D-binding domain clone, an isotype control or a positive control (comprising heavy chain and light chain variable domains selected from the group consisting of: SEQ ID NOs: 526-529, or anti-mouse NKG2D clones MI-6 and CX-5 available at eBioscience) was added to each well.

cynomolgus NKG2D-Fc = target: T4, cynomolgus NKG2D-Fc (cynomolgus monkey, UniProt P61252 73-216); assay: ELISA on plate-adsorbed recombinant cynomolgus NKG2D-Fc, anti-human kappa-HRP, OD 450 nm
T4 construct: extracellular domain
T4 sequence (looked up): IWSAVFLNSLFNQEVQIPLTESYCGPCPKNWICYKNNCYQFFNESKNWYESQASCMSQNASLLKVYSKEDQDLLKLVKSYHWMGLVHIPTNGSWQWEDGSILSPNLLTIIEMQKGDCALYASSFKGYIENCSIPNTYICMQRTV
Text: as §1

human NKG2D-Fc [7] = target: T5, human NKG2D-Fc (human, UniProt P26718 73-216); assay: ELISA on plate-adsorbed recombinant human NKG2D-Fc, anti-human kappa-HRP, OD 450 nm
T5 construct: extracellular domain; also called recombinant human NKG2D-Fc; NKG2D-Fc-biotin
T5 sequence (looked up): T4 sequence (looked up) with N43D, I133T
Text: as §1

human NKG2D-Fc [8] = target: T5, human NKG2D-Fc; assay: competition ELISA on plate-adsorbed human NKG2D-Fc; blocked ligand ULBP-6-His-biotin
Procedure: Recombinant human NKG2D-Fc proteins were adsorbed to wells of a microplate, and the wells were blocked with bovine serum albumin to reduce non-specific binding. A saturating concentration of ULBP-6-His-biotin was added to the wells, followed by addition of the NKG2D-binding domain clones. After a 2-hour incubation, wells were washed and ULBP-6-His-biotin that remained bound to the NKG2D-Fc coated wells was detected by streptavidin-conjugated to horseradish peroxidase and TMB substrate. Absorbance was measured at 450 nm and corrected at […]. After subtracting background, specific binding of NKG2D-binding domains to the NKG2D-Fc proteins was calculated from the percentage of ULBP-6-His-biotin that was blocked from binding to the NKG2D-Fc proteins in wells.

B1: ADI-27744 (A44) (antibody, V domains shown)
VH: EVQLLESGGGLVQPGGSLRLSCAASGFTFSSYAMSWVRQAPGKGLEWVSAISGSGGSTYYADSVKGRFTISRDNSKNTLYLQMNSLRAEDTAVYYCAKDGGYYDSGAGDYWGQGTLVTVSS
VL: DIQMTQSPSSVSASVGDRVTITCRASQGIDSWLAWYQQKPGKAPKLLIYAASSLQSGVPSRFSGSGSGTDFTLTISSLQPEDFATYYCQQGVSYPRTFGGGTKVEIK
Kd [1]: 10.1 nM
koff [1]: 0.00299 s⁻¹
kon [1]: 295000 M⁻¹ s⁻¹

B2: ADI-27749 (A49) (antibody, V domains shown)
VH: EVQLVESGGGLVKPGGSLRLSCAASGFTFSSYSMNWVRQAPGKGLEWVSSISSSSSYIYYADSVKGRFTISRDNAKNSLYLQMNSLRAEDTAVYYCARGAPMGAAAGWFDPWGQGTLVTVSS
VL: B1 VL with D30S, Y94F
Kd [1]: 12.4 nM
koff [1]: 0.00489 s⁻¹
kon [1]: 395000 M⁻¹ s⁻¹

B3: AB0755 (antibody, V domains shown)
VH: QVQLVQSGAEVKKPGASVKVSCKASGYTFTAYTIHWVRQAPGQGLEWMGYINPSSGYTEYNQKFKDRTTLTADTSIPTAYMELSRLRSDDTAVYYCTREGGLLWFDYWGQGTLVTVSS
VL: DIVMTQSPDSLAVSLGERATINCKSSHSLLYGNFQNNYLAWYQQKPGQPPKLLIYWASTRESGVPDRFSGSGSGTDFTLTISSLQAEDVAVYYCQQYYSYPYTFGGGTKLEIK
notes: the scFv entries carry the stabilising cysteines, which the mAb may lack; also called mAb corresponding to AB0264
EC50 (human CEACAM5 on cells [2]): 4.69 nM
Max FOB (human CEACAM5 on cells [2]): 23 fold over background
EC50 (human CEACAM5 on cells [3]): 5.84 nM
Max FOB (human CEACAM5 on cells [3]): 14 fold over background
EC50 (human CEACAM5 on cells [4]): 1.16 nM
Max FOB (human CEACAM5 on cells [4]): 3 fold over background
EC50 (human CEACAM5 on cells [5]): 2.71 nM
Max FOB (human CEACAM5 on cells [5]): 7 fold over background
EC50 (human CEACAM5 on cells [6]): 3.37 nM
Max FOB (human CEACAM5 on cells [6]): 5 fold over background

B4: ADI-29379 (E79) (antibody, V domains shown)
VH: QVQLVQSGAEVKKPGASVKVSCKASGYTFTSYYMHWVRQAPGQGLEWMGIINPSGGSTSYAQKFQGRVTMTRDTSTSTVYMELSSLRSEDTAVYYCARGAPNYGDTTHDYYYMDVWGKGTTVTVSS
VL: EIVMTQSPATLSVSPGERATLSCRASQSVSSNLAWYQQKPGQAPRLLIYGASTRATGIPARFSGSGSGTEFTLTISSLQSEDFAVYYCQQYDDWPFTFGGGTKVEIK
Kd [1]: 50.7 nM
koff [1]: 0.0225 s⁻¹
kon [1]: 443000 M⁻¹ s⁻¹

B5: ADI-29378 (E78) (antibody, V domains shown)
VH: QVQLVQSGAEVKKPGASVKVSCKASGYTFTSYYMHWVRQAPGQGLEWMGIINPSGGSTSYAQKFQGRVTMTRDTSTSTVYMELSSLRSEDTAVYYCAREGAGFAYGMDYYYMDVWGKGTTVTVSS
VL: B4 VL with M4L, V13L, N32Y, G50D, T53N, E70D, Q79E, S80P, Y91S, D93N
Kd [1]: 58.5 nM
koff [1]: 0.0487 s⁻¹
kon [1]: 832000 M⁻¹ s⁻¹

B6: ADI-27705 (antibody, V domains shown)
VH: QVQLQQWGAGLLKPSETLSLTCAVYGGSFSGYYWSWIRQPPGKGLEWIGEIDHSGSTNYNPSLKSRVTISVDTSKNQFSLKLSSVTAADTAVYYCARARGPWSFDPWGQGTLVTVSS
VL: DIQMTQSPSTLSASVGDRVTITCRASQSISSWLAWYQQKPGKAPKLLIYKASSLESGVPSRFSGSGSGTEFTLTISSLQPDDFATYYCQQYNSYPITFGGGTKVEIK
notes: named as a single clone only on the drawing sheets
binding result (mouse NKG2D-Fc): binds
binding result (cynomolgus NKG2D-Fc): binds
EC50 (read off the curve) (human NKG2D-Fc [7]): ~0.6 nM

B7: ADI-27741 (antibody, V domains shown)
VH: B6 VH
VL: DIQMTQSPSTLSASVGDRVTITCRASQSIGSWLAWYQQKPGKAPKLLIYKASSLESGVPSRFSGSGSGTEFTLTISSLQPDDFATYYCQQSNSYYTFGGGTKVEIK
notes: as for B6
binding result (mouse NKG2D-Fc): binds
binding result (cynomolgus NKG2D-Fc): binds
binding result (human NKG2D-Fc [7]): binds

B8: ADI-27724 (antibody, V domains shown)
VH: B6 VH
VL: not shown
notes: as for B6
EC50 (read off the curve) (mouse NKG2D-Fc): ~8 nM
EC50 (read off the curve) (cynomolgus NKG2D-Fc): ~8 nM
EC50 (read off the curve) (human NKG2D-Fc [7]): ~10 nM

B9: ADI-28226 (antibody, V domains shown)
VH: B6 VH
VL: DIQMTQSPSTLSASVGDRVTITCRASQSISSWLAWYQQKPGKAPKLLIYKASSLESGVPSRFSGSGSGTEFTLTISSLQPDDFATYYCQQYGSFPITFGGGTKVEIK
notes: named as a single clone only on the drawing sheets; also called C26
binding result (mouse NKG2D-Fc): binds
binding result (cynomolgus NKG2D-Fc): binds
binding result (human NKG2D-Fc [7]): binds

B10: ADI-27740 (antibody, V domains shown)
VH: B6 VH
VL: B7 VL with S91Y, N92H, Y94F
notes: named as a single clone only on the drawing sheets; also called A40
EC50 (read off the curve) (mouse NKG2D-Fc): ~0.2 nM
EC50 (read off the curve) (cynomolgus NKG2D-Fc): ~0.3 nM
EC50 (read off the curve) (human NKG2D-Fc [7]): ~0.3 nM
IC50 (read off the curve) (human NKG2D-Fc [8]): ~6 nM
